Here are results for 16 molecules from patent publication US20260234232A1 (QUAERITE BIOPHARM RESEARCH BEIJING, published 2026).

Where a chain is given by its changes, count along the chain named.

B1: 2V1-3GS (VHH)
chain: QLQLVESGGGSVQPGGSLRLSCEVSGRTFSSYTMGWFRQAPGKEREFVVAISKGGYKYDSVSLEARFTISKDNTKNTVYLQMNSLKPEDTAVYYCAATRAYGSSRLRLADTYEYWGQGTQVTVSSGGSQLQLVESGGGSVQPGGSLRLSCEVSGRTFSSYTMGWFRQAPGKEREFVVAISKGGYKYDSVSLEARFTISKDNTKNTVYLQMNSLKPEDTAVYYCAATRAYGSSRLRLADTYEYWGQGTQVTVSS
notes: Tandem bivalent nanobody
B2: 2V15-9S (VHH)
chain: QLQLVESGGGSVQPGGSLRLSCEVSGRTFASYTMGWFRQAPGKEREFVVAISKGGYKYDSVSLEARFTISKDNTKNTVYLQMNSLKPEDTAVYYCAGTRAYGSSRLRLAETYEYWGQGTQVTVSSSSSSSSSSSQLQLVESGGGSVQPGGSLRLSCEVSGRTFASYTMGWFRQAPGKEREFVVAISKGGYKYDSVSLEARFTISKDNTKNTVYLQMNSLKPEDTAVYYCAGTRAYGSSRLRLAETYEYWGQGTQVTVSS
notes: Tandem bivalent nanobody
B3: 2V15-30GS (VHH)
chain: QLQLVESGGGSVQPGGSLRLSCEVSGRTFASYTMGWFRQAPGKEREFVVAISKGGYKYDSVSLEARFTISKDNTKNTVYLQMNSLKPEDTAVYYCAGTRAYGSSRLRLAETYEYWGQGTQVTVSSGGGGSGGGSGGGGSGGGSGGGSGGGSGGGSQLQLVESGGGSVQPGGSLRLSCEVSGRTFASYTMGWFRQAPGKEREFVVAISKGGYKYDSVSLEARFTISKDNTKNTVYLQMNSLKPEDTAVYYCAGTRAYGSSRLRLAETYEYWGQGTQVTVSS
notes: Tandem bivalent nanobody
B4: 2V15-20S (VHH)
chain: QLQLVESGGGSVQPGGSLRLSCEVSGRTFASYTMGWFRQAPGKEREFVVAISKGGYKYDSVSLEARFTISKDNTKNTVYLQMNSLKPEDTAVYYCAGTRAYGSSRLRLAETYEYWGQGTQVTVSSSSSSSSSSSSSSSSSSSSSSQLQLVESGGGSVQPGGSLRLSCEVSGRTFASYTMGWFRQAPGKEREFVVAISKGGYKYDSVSLEARFTISKDNTKNTVYLQMNSLKPEDTAVYYCAGTRAYGSSRLRLAETYEYWGQGTQVTVSS
notes: Tandem bivalent nanobody
B5: 2V15-20GS (VHH)
chain: QLQLVESGGGSVQPGGSLRLSCEVSGRTFASYTMGWFRQAPGKEREFVVAISKGGYKYDSVSLEARFTISKDNTKNTVYLQMNSLKPEDTAVYYCAGTRAYGSSRLRLAETYEYWGQGTQVTVSSGGGGSGGGSGGGSGGGSGGSQLQLVESGGGSVQPGGSLRLSCEVSGRTFASYTMGWFRQAPGKEREFVVAISKGGYKYDSVSLEARFTISKDNTKNTVYLQMNSLKPEDTAVYYCAGTRAYGSSRLRLAETYEYWGQGTQVTVSS
notes: Tandem bivalent nanobody
B6: 2V1-EAAAK-Turn (VHH)
chain: QLQLVESGGGSVQPGGSLRLSCEVSGRTFSSYTMGWFRQAPGKEREFVVAISKGGYKYDSVSLEARFTISKDNTKNTVYLQMNSLKPEDTAVYYCAATRAYGSSRLRLADTYEYWGQGTQVTVSSPDSEAAAKEAAAKEAAAKEAAAKEAAAKPDGSSQLQLVESGGGSVQPGGSLRLSCEVSGRTFSSYTMGWFRQAPGKEREFVVAISKGGYKYDSVSLEARFTISKDNTKNTVYLQMNSLKPEDTAVYYCAATRAYGSSRLRLADTYEYWGQGTQVTVSS
notes: Tandem bivalent nanobody
B7: 2V15-EAAAK-Turn (VHH)
chain: B6 chain with S30A, A97G, D110E, S188A, A255G, D268E
notes: Tandem bivalent nanobody
B8: 2V15-25GS (VHH)
chain: QLQLVESGGGSVQPGGSLRLSCEVSGRTFASYTMGWFRQAPGKEREFVVAISKGGYKYDSVSLEARFTISKDNTKNTVYLQMNSLKPEDTAVYYCAGTRAYGSSRLRLAETYEYWGQGTQVTVSSGGGGSGGGSGGGSGGGSGGGSGGGSQLQLVESGGGSVQPGGSLRLSCEVSGRTFASYTMGWFRQAPGKEREFVVAISKGGYKYDSVSLEARFTISKDNTKNTVYLQMNSLKPEDTAVYYCAGTRAYGSSRLRLAETYEYWGQGTQVTVSS
notes: Tandem bivalent nanobody
B9: 2V1-NL (VHH)
chain: QLQLVESGGGSVQPGGSLRLSCEVSGRTFSSYTMGWFRQAPGKEREFVVAISKGGYKYDSVSLEARFTISKDNTKNTVYLQMNSLKPEDTAVYYCAATRAYGSSRLRLADTYEYWGQGTQVTVSSQLQLVESGGGSVQPGGSLRLSCEVSGRTFSSYTMGWFRQAPGKEREFVVAISKGGYKYDSVSLEARFTISKDNTKNTVYLQMNSLKPEDTAVYYCAATRAYGSSRLRLADTYEYWGQGTQVTVSS
notes: Tandem bivalent nanobody; also called bivalent V1 without a linker
B10: 2V1-3A (VHH)
chain: B1 chain with G126A, G127A, S128A
notes: Tandem bivalent nanobody
B11: 2V1-30GS (VHH)
chain: B3 chain with A30S, G97A, E110D, A185S, G252A, E265D
notes: Tandem bivalent nanobody
B12: 2V1-39GS (VHH)
chain: QLQLVESGGGSVQPGGSLRLSCEVSGRTFSSYTMGWFRQAPGKEREFVVAISKGGYKYDSVSLEARFTISKDNTKNTVYLQMNSLKPEDTAVYYCAATRAYGSSRLRLADTYEYWGQGTQVTVSSGGGGSGGGSGGGGSGGGGSGGGGSGGGGSGGGGSGGGGSQLQLVESGGGSVQPGGSLRLSCEVSGRTFSSYTMGWFRQAPGKEREFVVAISKGGYKYDSVSLEARFTISKDNTKNTVYLQMNSLKPEDTAVYYCAATRAYGSSRLRLADTYEYWGQGTQVTVSS
notes: Tandem bivalent nanobody
B13: 2V1-(AP)10 (VHH)
chain: QLQLVESGGGSVQPGGSLRLSCEVSGRTFSSYTMGWFRQAPGKEREFVVAISKGGYKYDSVSLEARFTISKDNTKNTVYLQMNSLKPEDTAVYYCAATRAYGSSRLRLADTYEYWGQGTQVTVSSPDSAPAPAPAPAPAPAPAPAPAPDGSSQLQLVESGGGSVQPGGSLRLSCEVSGRTFSSYTMGWFRQAPGKEREFVVAISKGGYKYDSVSLEARFTISKDNTKNTVYLQMNSLKPEDTAVYYCAATRAYGSSRLRLADTYEYWGQGTQVTVSS
notes: Tandem bivalent nanobody
B14: 2V1-(AP)5 (VHH)
chain: QLQLVESGGGSVQPGGSLRLSCEVSGRTFSSYTMGWFRQAPGKEREFVVAISKGGYKYDSVSLEARFTISKDNTKNTVYLQMNSLKPEDTAVYYCAATRAYGSSRLRLADTYEYWGQGTQVTVSSPDSAPAPAPAPAPDGSSQLQLVESGGGSVQPGGSLRLSCEVSGRTFSSYTMGWFRQAPGKEREFVVAISKGGYKYDSVSLEARFTISKDNTKNTVYLQMNSLKPEDTAVYYCAATRAYGSSRLRLADTYEYWGQGTQVTVSS
notes: Tandem bivalent nanobody
B15: 2V1-EAAAK-Rigid (VHH)
chain: QLQLVESGGGSVQPGGSLRLSCEVSGRTFSSYTMGWFRQAPGKEREFVVAISKGGYKYDSVSLEARFTISKDNTKNTVYLQMNSLKPEDTAVYYCAATRAYGSSRLRLADTYEYWGQGTQVTVSSLAEAAAKEAAAKEAAAKEAAAKEAAAKAAAQLQLVESGGGSVQPGGSLRLSCEVSGRTFSSYTMGWFRQAPGKEREFVVAISKGGYKYDSVSLEARFTISKDNTKNTVYLQMNSLKPEDTAVYYCAATRAYGSSRLRLADTYEYWGQGTQVTVSS
notes: Tandem bivalent nanobody
B16: 2V1-6A (VHH)
chain: QLQLVESGGGSVQPGGSLRLSCEVSGRTFSSYTMGWFRQAPGKEREFVVAISKGGYKYDSVSLEARFTISKDNTKNTVYLQMNSLKPEDTAVYYCAATRAYGSSRLRLADTYEYWGQGTQVTVSSAAAAAAQLQLVESGGGSVQPGGSLRLSCEVSGRTFSSYTMGWFRQAPGKEREFVVAISKGGYKYDSVSLEARFTISKDNTKNTVYLQMNSLKPEDTAVYYCAATRAYGSSRLRLADTYEYWGQGTQVTVSS
notes: Tandem bivalent nanobody

In one test the target is T1, human VEGFA165 (human, UniProt P15692-4 27-191).
T1 construct: Bought protein from two suppliers, treated as one molecule; the supplier is named under assay; also called antigen VEGFA
T1 sequence (P15692 other isoform, or with tags, fused parts or gaps limits assumed): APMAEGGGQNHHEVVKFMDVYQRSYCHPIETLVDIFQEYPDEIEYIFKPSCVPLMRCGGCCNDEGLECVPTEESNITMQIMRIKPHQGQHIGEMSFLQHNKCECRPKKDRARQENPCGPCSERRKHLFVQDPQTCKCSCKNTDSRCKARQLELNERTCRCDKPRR
The test can be described thus: competitive ELISA, coated VEGFA, competitor VEGFR2-ECD-Fc 1 nM.
Turning to B1, the IC50 turned out to be 3 nM and the “Maximum inhibition rate (%)” value is 91%.
The matching figures for B2: 3.53 nM and 88.8%.
On the same counts, the results for B3 are 1.6 nM and 94.1%.
With B4, the IC50 came out at 4.38 nM and the “Maximum inhibition rate (%)” value came out at 89.8%.
The matching figures for B5: 2.03 nM and 94.2%.
On the same counts, the results for B6 are 1.56 nM and 96.8%.
On the same counts, the results for B7 are 1.76 nM and 96.7%.
Consider B8, for which the 50% inhibitory concentration (IC50) stood at 1.66 nM and the “Maximum inhibition rate (%)” value was 94.5%.

The target in another test is T1, human VEGFA165. Nature of the test: ELISA, coated human VEGFA165, anti-His detection. The procedure:
Antigen human VEGFA165 (label-free, purchased from Sino Biological, Cat. No.: HPLC-10008-HNAH, hereinafter referred to as VEGFA) was diluted with ELISA coating buffer to a final concentration of 0.3 μg/mL and added to a microplate at 100 μL/well for coating at 4° C. overnight. […] The solution used for antibody dilution was PBS containing 0.1% Tween-20 (pH 7.4), i.e., PBST. After being incubated at 37° C. for 1 h, the microplate was washed 3 times with PBST, and a dilution of His-Tag murine monoclonal antibody (purchased from Proteintech, Cat. No.: 66005-1-Ig) was added. The plate was further incubated at 37° C. for 1 h and washed again. Subsequently, a dilution of HRP-labeled goat anti-mouse IgG antibody (HRP-conjugated Affinipure Goat Anti-Mouse IgG (H+L), purchased from Proteintech, Cat. No.: SA00001-1) was added, and the plate was incubated at room temperature for 45 min. After the plate was washed, 100 μL of TMB (purchased from Tiangen Biotech, Cat. No.: PA107-01) was added to each well for color development at 37° C. for 15 min, followed by the addition of 50 μL of stopping solution. The absorbance at 450 nm (OD450) was measured using a microplate reader.
On the technique in general: An ELISA detects its analyte on a solid surface through an enzyme-linked reagent.
B9 showed an EC50 of 0.29 nM.
Still for that read-out and setting: to B10 belongs 0.25 nM.
On the same count and under the same terms, the value for B2 was 0.21 nM; that for B11 was 0.22 nM.
Turning to B3, it took 0.27 nM to reach a half-maximal effect (EC50).
Still for that read-out and setting: the value for B4 was 0.43 nM; that for B5 was 0.28 nM.
The same measure, in the same setting: the value for B6 was 0.31 nM.
Still for that read-out and setting: the value for B7 was 0.33 nM; that for B12 was 0.18 nM; that for B13 was 0.18 nM.
In turn, B14 came in with an EC50 of 0.19 nM.
Same read-out and setting: the value for B8 was 0.24 nM.
The same measure, in the same setting: the value for B15 was 0.22 nM; that for B16 was 0.33 nM.

By IC50 is commonly meant the concentration at which inhibition is half-maximal. Lower therefore signals inhibition by little substance. The EC50 is the midpoint of the concentration-response curve. Higher therefore signals a less potent agent.
